From publication PMC5119889

What was measured:
[1] = molecular target: α1A-tubulin (α-Tubulin-CT) 399-451 (UniProt Q71U36); assay: GST pull-down, anti-His blot; details: sites S245
[2] = molecular target: polymerized microtubules from Cos7 lysate; assay: tubulin cosedimentation assay, band densitometry of immunoblots; details: pre-cleared lysates of Cos7 cells expressing FLAG tagged GIV-WT or SD mutant; n = 3; parent: est. 0.90; read off a plot

For “GIV (Girdin) 1-440 (from UniProt Q3V6T2) His-GIV-NT WT phosphorylated by AMPK”, the “binding against the reference” value ([1]; reference: His-GIV-NT WT, not phosphorylated) was “gained”.

With “GIV (Girdin) 1-440 (from UniProt Q3V6T2) S245A, AMPK-treated” the “binding against the reference” value ([1]; reference: wild type, AMPK-treated) was “lost”.

“GIV-FLAG WT, full length human GIV (from UniProt Q3V6T2) S245D” gave an other: Ratio of GIV (Pellet:Supernatant) [2] of 2.
